Assays:
[1] = biological target: HLA-A*0301 (A3) on single antigen beads (human) (UniProt P04439); test: Luminex single antigen beads, iBeads (#6), 1:8
[2] = biological target: Albumin on negative control beads (serum albumin, HSA/BSA) (human or bovine); test: Luminex single antigen beads, iBeads (#6), 1:8
[3] = biological target: HLA-B*4402 (B44) single antigen on Luminex beads (human); test: Luminex single antigen, iBeads (#6), IVIg 1:8
[4] = biological target: HLA-B*4001 (B60) single antigen on Luminex beads (human); test: Luminex single antigen, iBeads (#6), IVIg 1:8
[5] = biological target: HLA-B*3701 (B37) single antigen on Luminex beads (human); test: Luminex single antigen, iBeads (#6), IVIg 1:8
[6] = biological target: HLA-B*4006 (B61) single antigen on Luminex beads (human); test: Luminex single antigen, iBeads (#6), IVIg 1:8
[7] = biological target: HLA-B*3501 (B35) single antigen on Luminex beads (human); test: Luminex single antigen, iBeads (#6), IVIg 1:8
[8] = biological target: HLA-B*2708 (B27) single antigen on Luminex beads (human); test: Luminex single antigen, iBeads (#6), IVIg 1:8
[9] = biological target: HLA-B*3901 (B39) single antigen on Luminex beads (human); test: Luminex single antigen, iBeads (#6), IVIg 1:8
[10] = biological target: HLA-B*4701 (B47) single antigen on Luminex beads (human); test: Luminex single antigen, iBeads (#6), IVIg 1:8
[11] = biological target: HLA-B*2705 (B27) single antigen on Luminex beads (human); test: Luminex single antigen, iBeads (#6), IVIg 1:8
[12] = biological target: HLA-B*4501 (B45) single antigen on Luminex beads (human); test: Luminex single antigen, iBeads (#6), IVIg 1:8
[13] = biological target: HLA-B*3801 (B38) single antigen on Luminex beads (human); test: Luminex single antigen, iBeads (#6), IVIg 1:8
[14] = biological target: HLA-B*4002 (B61) single antigen on Luminex beads (human); test: Luminex single antigen, iBeads (#6), IVIg 1:8
[15] = biological target: HLA-B*4101 (B41) single antigen on Luminex beads (human); test: Luminex single antigen, iBeads (#6), IVIg 1:8
[16] = biological target: HLA-B*4201 (B42) single antigen on Luminex beads (human); test: Luminex single antigen, iBeads (#6), IVIg 1:8
[17] = biological target: HLA-B*4403 (B44) single antigen on Luminex beads (human); test: Luminex single antigen, iBeads (#6), IVIg 1:8
[18] = biological target: HLA-A*0301 (A3) on single antigen beads (human) (UniProt P04439); test: Luminex, iBead MFI against regular bead MFI, 1:8
[19] = biological target: HLA-B*4001 (B60) single antigen on Luminex beads (human); test: Luminex single antigen, regular beads (#7), IVIg 1:8
[20] = biological target: HLA-B*3701 (B37) single antigen on Luminex beads (human); test: as above
[21] = biological target: HLA-B*4006 (B61) single antigen on Luminex beads (human); test: as above
[22] = biological target: HLA-B*3501 (B35) single antigen on Luminex beads (human); test: as above
[23] = biological target: HLA-B*3901 (B39) single antigen on Luminex beads (human); test: as above
[24] = biological target: HLA-B*4701 (B47) single antigen on Luminex beads (human); test: as above
[25] = biological target: HLA-B*2705 (B27) single antigen on Luminex beads (human); test: as above
[26] = biological target: HLA-B*4501 (B45) single antigen on Luminex beads (human); test: as above
[27] = biological target: HLA-B*3801 (B38) single antigen on Luminex beads (human); test: as above
[28] = biological target: HLA-B*4201 (B42) single antigen on Luminex beads (human); test: as above
[29] = biological target: HLA-B*4403 (B44) single antigen on Luminex beads (human); test: as above
[30] = biological target: HLA-B*4601 (B46) single antigen on Luminex beads (human); test: as above
[31] = biological target: HLA-B*4402 (B44) single antigen on Luminex beads (human); test: Luminex single antigen, iBead vs regular bead, IVIg 1:8
[32] = biological target: HLA-B*3701 (B37) single antigen on Luminex beads (human); test: as above
[33] = biological target: HLA-B*4006 (B61) single antigen on Luminex beads (human); test: as above
[34] = biological target: HLA-B*3501 (B35) single antigen on Luminex beads (human); test: as above
[35] = biological target: HLA-B*2708 (B27) single antigen on Luminex beads (human); test: as above
[36] = biological target: HLA-B*4701 (B47) single antigen on Luminex beads (human); test: as above
[37] = biological target: HLA-B*2705 (B27) single antigen on Luminex beads (human); test: as above
[38] = biological target: HLA-B*4501 (B45) single antigen on Luminex beads (human); test: as above
[39] = biological target: HLA-B*4201 (B42) single antigen on Luminex beads (human); test: as above
[40] = biological target: HLA-B*4601 (B46) single antigen on Luminex beads (human); test: as above
[41] = biological target: Albumin on negative control beads (serum albumin, HSA/BSA) (human or bovine); test: Luminex single antigen beads, regular beads (#7), 1:8
[42] = biological target: HLA-B*4601 (B46) single antigen on Luminex beads (human); test: Luminex single antigen, iBeads (#6), IVIg 1:8
[43] = biological target: Albumin on negative control beads (serum albumin, HSA/BSA) (human or bovine); test: Luminex, iBead MFI against regular bead MFI, 1:8
[44] = biological target: HLA-B*4402 (B44) single antigen on Luminex beads (human); test: Luminex single antigen, regular beads (#7), IVIg 1:8
[45] = biological target: HLA-B*2708 (B27) single antigen on Luminex beads (human); test: as above
[46] = biological target: HLA-B*4002 (B61) single antigen on Luminex beads (human); test: as above
[47] = biological target: HLA-B*4101 (B41) single antigen on Luminex beads (human); test: as above
[48] = biological target: HLA-B*3801 (B38) single antigen on Luminex beads (human); test: Luminex single antigen, iBead vs regular bead, IVIg 1:8
[49] = biological target: HLA-B*4002 (B61) single antigen on Luminex beads (human); test: as above
[50] = biological target: HLA-B*4403 (B44) single antigen on Luminex beads (human); test: as above
[51] = biological target: HLA-A*0301 (A3) on single antigen beads (human) (UniProt P04439); test: Luminex single antigen beads, regular beads (#7), 1:8
[52] = biological target: HLA-A*8001 (A80) single antigen on Luminex beads (human); test: Luminex single antigen bead assay, iBeads (#6), IVIg 1:8
[53] = biological target: HLA-A*6802 (A68) single antigen on Luminex beads (human); test: as above
[54] = biological target: HLA-A*7401 (A74) single antigen on Luminex beads (human); test: as above
[55] = biological target: HLA-A*6901 (A69) single antigen on Luminex beads (human); test: as above
[56] = biological target: HLA-A*8001 (A80) single antigen on Luminex beads (human); test: Luminex single antigen bead assay, regular beads (#7), IVIg 1:8
[57] = biological target: HLA-A*6802 (A68) single antigen on Luminex beads (human); test: as above
[58] = biological target: HLA-A*7401 (A74) single antigen on Luminex beads (human); test: as above
[59] = biological target: HLA-A*6901 (A69) single antigen on Luminex beads (human); test: as above
[60] = biological target: HLA-A*8001 (A80) single antigen on Luminex beads (human); test: Luminex single antigen bead assay, iBeads vs regular beads, IVIg 1:8
[61] = biological target: HLA-A*6802 (A68) single antigen on Luminex beads (human); test: as above
[62] = biological target: HLA-A*7401 (A74) single antigen on Luminex beads (human); test: as above
[63] = biological target: HLA-A*6901 (A69) single antigen on Luminex beads (human); test: as above

An MFI [1] of 0 MFI, an MFI [2] of 5030 MFI and an MFI [3] of 3380 MFI were found for “GamaSTAN S/D (IVIg, Talecris Biotherapeutics, Inc., USA) (antibody)” in this work. It also gave an MFI [4] of 2290 MFI, an MFI [5] of 392 MFI and an MFI [6] of 2370 MFI. It also gave an MFI [7] of 653 MFI, an MFI [8] of 1410 MFI and an MFI [9] of 0 MFI. For the same substance, the MFI [10] was 3210 MFI, the MFI [11] was 1080 MFI and the MFI [12] was 5400 MFI. For the same substance, the MFI [13] was 0 MFI, the MFI [14] was 1190 MFI and the MFI [15] was 870 MFI. For the same substance, the MFI [16] was 286 MFI, the MFI [17] was 2900 MFI and the Difference % (iBead against regular bead) [18] was -100%. For the same substance, the MFI [19] was 1720 MFI, the MFI [20] was 3240 MFI and the MFI [21] was 3470 MFI. The MFI [22] was 680 MFI, the MFI [23] was 0 MFI and the MFI [24] was 1770 MFI. For the same substance, the MFI [25] was 1370 MFI, the MFI [26] was 3670 MFI and the MFI [27] was 619 MFI. For the same substance, the MFI [28] was 598 MFI, the MFI [29] was 3390 MFI and the MFI [30] was 1830 MFI. For the same substance, the Difference % (iBead against regular bead MFI) [31] was -22%, the Difference % (iBead against regular bead MFI) [32] was -88% and the Difference % (iBead against regular bead MFI) [33] was -32%. For the same substance, the Difference % (iBead against regular bead MFI) [34] was -4%, the Difference % (iBead against regular bead MFI) [35] was 32% and the Difference % (iBead against regular bead MFI) [36] was 81%. For the same substance, the Difference % (iBead against regular bead MFI) [37] was -21%, the Difference % (iBead against regular bead MFI) [38] was 47% and the Difference % (iBead against regular bead MFI) [39] was -52%. It also gave a Difference % (iBead against regular bead MFI) [40] of -20% and an MFI [41] of 3790 MFI.

An MFI [2] of 7150 MFI, an MFI [3] of 1870 MFI and an MFI [5] of 3640 MFI were found for Gamunex-C Lot NKLG1 (IVIg) (antibody) in this work. For the same substance, the MFI [6] was 2140 MFI, the MFI [7] was 1610 MFI and the MFI [8] was 1340 MFI. It also gave an MFI [9] of 242 MFI, an MFI [10] of 2800 MFI and an MFI [11] of 1660 MFI. For the same substance, the MFI [12] was 2110 MFI, the MFI [13] was 1380 MFI and the MFI [14] was 1680 MFI. For the same substance, the MFI [15] was 1490 MFI, the MFI [16] was 1090 MFI and the MFI [17] was 2400 MFI. The MFI [42] was 3540 MFI, the Difference % (iBead against regular bead) [43] was -34% and the MFI [44] was 6460 MFI. It also gave an MFI [19] of 1680 MFI, an MFI [20] of 6130 MFI and an MFI [21] of 5390 MFI. For the same substance, the MFI [22] was 1670 MFI, the MFI [45] was 0 MFI and the MFI [23] was 0 MFI. It also gave an MFI [24] of 2550 MFI, an MFI [25] of 388 MFI and an MFI [26] of 1110 MFI. The MFI [27] was 1360 MFI, the MFI [46] was 569 MFI and the MFI [47] was 716 MFI. For the same substance, the MFI [28] was 455 MFI, the MFI [29] was 1110 MFI and the MFI [30] was 3010 MFI. It also gave a Difference % (iBead against regular bead MFI) [31] of -71%, a Difference % (iBead against regular bead MFI) [32] of -41% and a Difference % (iBead against regular bead MFI) [33] of -60%. For the same substance, the Difference % (iBead against regular bead MFI) [34] was -3%, the Difference % (iBead against regular bead MFI) [36] was 10% and the Difference % (iBead against regular bead MFI) [37] was 327%. The Difference % (iBead against regular bead MFI) [38] was 91%, the Difference % (iBead against regular bead MFI) [48] was 1% and the Difference % (iBead against regular bead MFI) [49] was 195%. For the same substance, the Difference % (iBead against regular bead MFI) [39] was 139%, the Difference % (iBead against regular bead MFI) [50] was 116% and the Difference % (iBead against regular bead MFI) [40] was 17%. The MFI [51] was 0 MFI and the MFI [41] was 10800 MFI.

An MFI [52] of 2850 MFI, an MFI [53] of 2080 MFI and an MFI [54] of 431 MFI were found for “IVIg GamaSTAN S/D (Talecris Biotherapeutics, Inc., USA) (antibody)” in this work. The MFI [55] was 2410 MFI, the MFI [56] was 2700 MFI and the MFI [57] was 2060 MFI. For the same substance, the MFI [58] was 80 MFI, the MFI [59] was 1880 MFI and the Difference % (iBead MFI against regular bead MFI) [60] was 5%. For the same substance, the Difference % (iBead MFI against regular bead MFI) [61] was 1%, the Difference % (iBead MFI against regular bead MFI) [62] was 437% and the Difference % (iBead MFI against regular bead MFI) [63] was 28%.

Reference: patent publication US10800847
